B1: recombinant human Bri2(90-236) (other, not shown: small tags and cut ends)
chain: GIKYIKDDVILNEPSADAPAALYQTIEENIKIFEEEEVEFISVPVPEFADSDPANIVHDFNKKLTAYLDLNLDKCYVIPLNTSIVMPPRNLLELLINIKAGTYLPQSYLIHEHMVITDRIENIDHLGFFIYRLCHDKETYKLQRRET

How the values were obtained:
human Aβ1-40 peptide = human Aβ1-40 peptide (human); assay: cell-based or functional assay
[1] = target: B1; assay: ESI-MS
Procedure: Protein and peptides were mixed at 22° C. directly before analysis at a final protein concentration of 20 μM and a final peptide concentration of 50 μM. Data was acquired using a QTOF Ultima API mass spectrometer (Waters, Milford, Mass., USA) equipped with a Z-spray source operated in the positive-ion mode. Samples were introduced via nano-electrospray using metal-plated borosilicate glass capillary needles (Proxeon, Denmark). The source temperature was 80° C., the capillary voltage 1.7 kV, and the cone and RF lens 1 potentials were 100 and 38 V, respectively. The mass spectrometer was operated in single-reflector mode at a resolution of 10 000 (full width half maximum definition), and the mass scale was calibrated using myoglobin. Scans were acquired at a rate of 1 scan per 2 sec between 500 and 4000 m/z. The collision gas was argon at 5.2×10⁻⁵ mbar. Mass spectra were smoothed using the Waters MassLynx software.
Mass spectra were recorded to investigate the presence and stoichiometry of protein-peptide complexes in the gas phase.

Chain of human Aβ1-40 peptide (human) (peptide, as listed by the source): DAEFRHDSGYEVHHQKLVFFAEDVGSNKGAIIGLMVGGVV

| Binder | fold prolongation of the half time of Aβ1-40 aggregation, ThT fluorescence (human Aβ1-40 peptide) | binding result [1] |
| --- | --- | --- |
| B1 | ~4.5 times | – |
| H-KFFEYNGKKFFE-OH (also called synthetic peptide) | – | binds |

Source: US20130172262A1 (ALPHABETA, published 2013)
